Results: paper PMC6698902

What was measured:
Assay in all cases: fluorescence anisotropy
[1] = target: T1, A3B-CTD E255A (inactive, 'WT') (Homo sapiens, UniProt Q9UH17 187-382, E255A)
A3B-CTD P206G = A3B-CTD P206G (Homo sapiens, UniProt Q9UH17 187-382, E255A;P206G)
A3B-CTD R211A = A3B-CTD R211A (Homo sapiens, UniProt Q9UH17 187-382, E255A;R211A)
A3B-CTD Y315F = A3B-CTD Y315F (Homo sapiens, UniProt Q9UH17 187-382, E255A;Y315F)
[2] = target: T1, A3B-CTD E255A (inactive, 'WT'); remark: listed apart in the source

T1 sequence (Q9UH17 187-382 E255A): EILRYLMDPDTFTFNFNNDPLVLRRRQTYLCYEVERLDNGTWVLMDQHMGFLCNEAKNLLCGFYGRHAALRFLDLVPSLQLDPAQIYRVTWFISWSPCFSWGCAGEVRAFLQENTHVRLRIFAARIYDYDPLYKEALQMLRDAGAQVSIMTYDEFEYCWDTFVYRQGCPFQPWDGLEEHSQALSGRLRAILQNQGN
Chain of A3B-CTD R211A (Q9UH17 187-382 R211A/E255A): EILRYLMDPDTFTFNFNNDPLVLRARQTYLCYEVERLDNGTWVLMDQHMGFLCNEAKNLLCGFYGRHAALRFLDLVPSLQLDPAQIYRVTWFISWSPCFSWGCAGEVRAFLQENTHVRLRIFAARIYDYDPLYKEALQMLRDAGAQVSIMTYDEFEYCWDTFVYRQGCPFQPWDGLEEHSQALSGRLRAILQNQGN
Chain of A3B-CTD P206G (Q9UH17 187-382 P206G/E255A): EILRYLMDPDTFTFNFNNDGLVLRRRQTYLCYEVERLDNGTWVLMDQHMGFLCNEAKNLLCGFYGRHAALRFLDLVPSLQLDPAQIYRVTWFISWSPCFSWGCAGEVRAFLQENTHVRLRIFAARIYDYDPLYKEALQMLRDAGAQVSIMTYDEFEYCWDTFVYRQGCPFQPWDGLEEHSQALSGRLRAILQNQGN
Chain of A3B-CTD Y315F (Q9UH17 187-382 E255A/Y315F): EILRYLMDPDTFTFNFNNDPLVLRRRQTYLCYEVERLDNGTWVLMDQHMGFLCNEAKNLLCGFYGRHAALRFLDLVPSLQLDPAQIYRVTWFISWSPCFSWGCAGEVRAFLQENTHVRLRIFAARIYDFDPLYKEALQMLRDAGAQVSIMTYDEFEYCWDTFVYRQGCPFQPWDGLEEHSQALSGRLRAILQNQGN

Row | Binder | Kd [1] | binding result (A3B-CTD P206G) | binding result (A3B-CTD R211A) | binding result (A3B-CTD Y315F) | binding result [2]
1 | AAAAAAAATCGAAAA (ssDNA) [polyA TCG (linear DNA)] | 5.4 µM | no binding | no binding |  | 
2 | GCCATCATTCGATGGG (structured_DNA) [DNA hairpin] | 2 µM | no binding | no binding | binds | 
3 | GCCAUCUAUCGAUGG (structured_RNA) [RNA hairpin] |  |  |  |  | no binding
